The source of these data is patent publication US20100196361A1, “Method of inhibition of vascular development using an antibody” (DYAX CORP., priority 2003, published 2010).

The test system of assay [1] is HUVEC. In words: Tube formation by HUVEC in collagen gel. The assay is classed as cell-based, human. Here is the method: Human Umbilical vein endothelial cells (HUVEC) were obtained by treating fresh human umbilical cord veins with Trypsin-EDTA (1×) (Gibco/Invitrogen) for 20-25 minutes at 37° C. The cells were cultured in a T-25 flask coated with attachment factor (AF), (Cascade Biologics) in RPMI 1640 medium supplemented with 10% FCS, 0.4% BBE, 1% 1-glutamin, 1% penicillin/streptomycin. Primary cultures were detached with warm Trypsin-EDTA and used when confluent at the second or third passage. The cells were maintained in a proliferative state by culturing them in a split ratio 1:2 at an approximate density of the monolayer of about 60-80%. […]
After 2 passages HUVECs were seeded in their culture medium (40×10^3/50 μl/well of a 96-well plate) on a collagen gel (50 μl of collagen I 1.5 mg/ml) prepared by mixing 7.5 volumes of 2 mg/ml collagen (Collagen R; Serva, Heidelberg, Germany), 1 volume of 10× MEM, 1.5 volume of NaHCO3 (15.6 mg/ml) and ˜1 volume of NaOH to adjust the pH to 7.4. […] The assay was performed with a streptavidin antibody used as a control (from 1 ng/ml to 10 μg/ml): The total length of the tube network on the culture surface was quantified at 40× magnification by the METAVUE™ Software (Universal Imaging Corporation). Results from triplicate wells were expressed as mean vessel area per field ±SEM (relative units). […]

Assay [2] concerns the target Tie1 (Homo sapiens, UniProt P35590). Nature of the assay: Tie1 phosphorylation assay. The arrangement: an expression vector containing a V5-tagged full length Tie1 cDNA; expressed in transfected cells; host or cells: COS1. The class given is cell-based. Here is the method:
Tie1 phosphorylation assay. COS1 cells were transfected with pcDNA3-Tie1-V5. After 24 h of transfection, the cells were serum starved for 8 h and then treated with E3 IgG. For the Tie1 phosphorylation assay, HDMVECs were cultured on 10 cm dishes to near confluence, starved (8-16 h) in serum free medium and stimulated as indicated. After the stimulations, the cells were lysed in lysis buffer (RIPA-DOC: 50 mM Tris-HCl pH 8.0, 150 mM NaCl, 1% Triton-X-100, 0.1% SDS, 0.5% DOC, 10 mM EDTA, supplemented with aprotinin, leupeptin, PMSF and sodium vanadate). Clarified lysates from transfected COS 1 cells or HDMVECs were immunoprecipitated with anti-V5 or anti-Tie1 B9, respectively. Proteins were separated by SDS-PAGE, transferred to nitrocellulose and immunoblotted using the anti-phosphotyrosine and anti-Tie1 (R&D systems) antibodies.
To test if the E3 IgG binding to the extracellular region of Tie1 induces autophosphorylation of Tie1, the Tie1 receptor phosphorylation level in response to E3 IgG treatment was studied in transiently transfected COS 1 cells and human primary endothelial cells. COS 1 cells were transfected with an expression vector containing a V5-tagged full length Tie1 cDNA, and, after serum starvation, the cells were treated with E3 IgG (200 ng/ml). Cell lysates were extracted at several time points and Tie1 was immunoprecipitated with anti-V5 followed by western blotting using anti-phosphotyrosine and anti-Tie1 antibodies. […] To determine if E3 IgG induces Tie1 phosphorylation in primary endothelial cells, HDMVEC cells were serum starved and stimulated with several concentrations of E3 for 60 min. […] Also higher concentrations of E3 (500-1000 ng/ml) induced Tie1 phosphorylation but the response was more rapid and was most prominent after 5 min of stimulation.
To study the kinetics of E3 IgG induced Tie1 activation, cells were stimulated with E3 IgG (200 ng/ml) and receptor phosphorylation was studied at various time points. Tie1 phosphorylation was highest 15-30 min after E3 IgG treatment but phosphorylation persisted for up to 1 h.

Tie1, sequence (P35590 22-1138): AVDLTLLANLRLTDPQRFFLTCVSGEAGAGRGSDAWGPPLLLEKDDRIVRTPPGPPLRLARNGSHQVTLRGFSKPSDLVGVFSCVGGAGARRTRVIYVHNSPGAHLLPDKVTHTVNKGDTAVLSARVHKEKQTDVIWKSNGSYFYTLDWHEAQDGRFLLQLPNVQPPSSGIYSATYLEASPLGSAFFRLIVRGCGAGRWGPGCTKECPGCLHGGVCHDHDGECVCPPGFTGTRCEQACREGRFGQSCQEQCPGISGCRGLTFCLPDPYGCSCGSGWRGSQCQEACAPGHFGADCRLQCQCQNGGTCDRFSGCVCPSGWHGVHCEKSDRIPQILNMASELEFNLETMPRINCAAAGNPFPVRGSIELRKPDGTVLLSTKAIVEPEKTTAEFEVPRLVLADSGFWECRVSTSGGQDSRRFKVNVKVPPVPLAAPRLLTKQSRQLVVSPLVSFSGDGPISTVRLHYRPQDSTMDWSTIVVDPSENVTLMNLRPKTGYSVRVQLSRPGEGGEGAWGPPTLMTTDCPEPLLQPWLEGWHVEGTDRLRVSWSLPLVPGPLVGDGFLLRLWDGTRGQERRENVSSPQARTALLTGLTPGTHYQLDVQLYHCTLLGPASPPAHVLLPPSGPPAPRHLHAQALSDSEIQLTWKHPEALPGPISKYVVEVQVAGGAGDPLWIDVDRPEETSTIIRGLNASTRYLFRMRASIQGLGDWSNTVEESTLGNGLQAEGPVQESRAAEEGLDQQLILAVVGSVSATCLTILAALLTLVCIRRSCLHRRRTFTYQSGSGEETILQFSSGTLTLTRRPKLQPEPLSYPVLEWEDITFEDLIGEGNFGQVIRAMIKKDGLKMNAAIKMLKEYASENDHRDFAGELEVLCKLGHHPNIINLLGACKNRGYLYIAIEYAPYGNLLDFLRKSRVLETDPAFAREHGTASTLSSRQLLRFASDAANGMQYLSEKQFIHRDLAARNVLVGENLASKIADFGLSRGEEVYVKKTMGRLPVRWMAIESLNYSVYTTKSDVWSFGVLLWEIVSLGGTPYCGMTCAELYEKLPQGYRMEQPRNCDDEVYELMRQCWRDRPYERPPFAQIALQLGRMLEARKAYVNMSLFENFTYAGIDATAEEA

B1: E3: human anti-Tie1 antibody from phage Fab library, reformatted as IgG; HC variable SEQ ID NO:114, LC variable SEQ ID NO:116 (antibody, V domains shown)
VH: EVQLLESGGGLVQPGGSLRLSCAASGFTFSMYGMVWVRQAPGKGLEWVSVISPSGGNTGYADSVKGRFTISRDNSKNTLYLQVNSLRAEDTAVYYCARAPRGYSYGYYYWGQGTLVTVSSASTKGPSVFPLAPSSKSTSGG
VL: DIQMTQSPLSLSASVGDRVTITCRASQGIGHYLAWYQQKPGKVPKLLIYTASTLQSGVPSRFSGSGSGTDFTLTINSLQPEDVATYYCQQFNSYPHTFGQGTRLDIK
modifications: IgG constant regions; Synthetically generated peptide
Regarding B1, in assay [1] (HUVEC, collagen type-I matrix, 0.1 ng/ml to 100 ng/ml tested), the “IC50, tube formation” value is given as “less than 10 ng/ml”. For the same molecule, the “inhibition of tube formation by HUVECs” value in assay [1] (collagen type-I gel) is given as “potent inhibitor of tube formation by HUVECS even at a concentration of 10 ng/ml”. In assay [2] (200 ng/ml), the “persistence of Tie1 phosphorylation” value is on record as “up to 1 h” and the “time of highest Tie1 phosphorylation” value fell in the range of 15 to 30 min. In addition, the “concentration giving receptor phosphorylation” value in assay [2] (HDMVEC, serum starved, 60 min stimulation) was in the range of 50 to 200 ng/mL. Further, in assay [2] (HDMVEC, 500-1000 ng/ml), the “time of most prominent Tie1 phosphorylation” value was determined as 5 min.
